Measurements: patent US20150183864A1 (KOREA ADVANCED INSTITUTE OF SCIENCE AND TECHNOLOGY KAIST, published 2015)
Blank lines part the entries; values can stand above or below the molecule they belong to.

Key:
[1] = target: VEGF-A165 (produced from CHO cell) (UniProt P15692); assay: SPR, BIAcore 3000, VEGF-A immobilized on CM5 chip
[2] = target: T1, TNFR2-Fc (also known as Etarnercept, U.S. Pat. No. 5,447,851) (human, UniProt P20333 23-257); assay: ELISA, VEGF-A coated on the plate, Fc fusion protein 0.01-10 nM, detection with anti-human Fc-HRP, OD 415
T1 construct: range 23-257; The ELISAs and photograph assays name TNFR2-Fc; the SPR and MTT assays name ENBREL®; also called TNFR2-Fc (1-257); ENBREL®; not shown: Fc of human IgG
T1 sequence (looked up): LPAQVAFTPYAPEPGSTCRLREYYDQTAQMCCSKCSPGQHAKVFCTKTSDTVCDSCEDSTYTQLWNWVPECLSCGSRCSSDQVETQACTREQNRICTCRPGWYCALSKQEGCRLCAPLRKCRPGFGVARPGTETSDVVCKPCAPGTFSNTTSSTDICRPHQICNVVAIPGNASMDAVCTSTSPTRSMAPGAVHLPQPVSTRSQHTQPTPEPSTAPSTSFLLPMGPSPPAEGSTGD
Description: After washing the plate 3 times with each 400 μl of PBS, a blocking was performed with the blocking solution (1% BSA in 100 μl PBS) at 37° C. for 2 hour. […] After washing the plate 3 times with each 400 μl of PBS, 50 μl of 3,3′,5,5′-tetramethylbenzidine (TMB) solution (Sigma-Aldrich T0440) was added into the plate, and were incubated at room temperature for 10 min.

Kd [1]: 1.35 pM
Molecule: VEGF-Trap (Fc fusion)

binding result [2]: no binding (tested: 10 nM)
B1: VEGF-A165 (produced from CHO cell) (ligand, UniProt P15692-4 27-191, looked up)
chain: APMAEGGGQNHHEVVKFMDVYQRSYCHPIETLVDIFQEYPDEIEYIFKPSCVPLMRCGGCCNDEGLECVPTEESNITMQIMRIKPHQGQHIGEMSFLQHNKCECRPKKDRARQENPCGPCSERRKHLFVQDPQTCKCSCKNTDSRCKARQLELNERTCRCDKPRR
